Source: PMC9279676, “ERK2 MAP kinase regulates SUFU binding by multisite phosphorylation of GLI1” (Life Science Alliance, 2022)
Residue numbers refer to the chain shown, from its start.

Tests used:
[1] = biological target: T1, GLI1_(1-232) S116E, 35S-radiolabeled (human, UniProt P08151-1 1-232, S116E, [35S]-methionine label)
T1 sequence: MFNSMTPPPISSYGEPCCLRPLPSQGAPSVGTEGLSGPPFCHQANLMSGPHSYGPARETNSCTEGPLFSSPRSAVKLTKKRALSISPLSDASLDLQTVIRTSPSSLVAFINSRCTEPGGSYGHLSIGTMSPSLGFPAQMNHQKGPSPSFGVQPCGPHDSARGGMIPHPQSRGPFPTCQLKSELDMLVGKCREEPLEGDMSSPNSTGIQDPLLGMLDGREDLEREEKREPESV

[2] = biological target: T2, GLI1_(1-232) S102E S116E S130E, 35S-radiolabeled (human, UniProt P08151-1 1-232, S102E | S116E | S130E, [35S]-methionine label)
T2 sequence: T1 sequence with S102E, S130E

[3] = biological target: T3, GLI1_(1-232) S102E S130E, 35S-radiolabeled (human, UniProt P08151-1 1-232, S102E | S130E, [35S]-methionine label)
T3 sequence: T1 sequence with S102E, E116S, S130E

[4] = biological target: T4, GLI1_(1-232) S116E S130E, 35S-radiolabeled (human, UniProt P08151-1 1-232, S116E | S130E, [35S]-methionine label)
T4 sequence: T1 sequence with S130E

[5] = biological target: T5, full-length GLI1 S102E S116E S130E, 35S-radiolabeled (human, UniProt P08151-1 1-1106, S102E | S116E | S130E, [35S]-methionine label); experiment: pull-down; purified GST-SUFU, 1.25-80 nM, captured on glutathione-Sepharose beads; ∼1 pmol 35S-GLI1 (1-232 or full length) in 200 μl; 15 min at 30°C, then 1 h at room temperature; Binding Buffer + 1 mg/ml BSA; bound GLI1 quantified by SDS-PAGE and Phosphorimager; Kd from binding isotherms; conditions: one partner purified
T5 construct: human GLI1, full length (1,106 residues); also called FL-GLI1^EEE; GLI1^EEE; source: in vitro transcription/translation, partially purified by ammonium sulfate precipitation
T5 sequence (looked up): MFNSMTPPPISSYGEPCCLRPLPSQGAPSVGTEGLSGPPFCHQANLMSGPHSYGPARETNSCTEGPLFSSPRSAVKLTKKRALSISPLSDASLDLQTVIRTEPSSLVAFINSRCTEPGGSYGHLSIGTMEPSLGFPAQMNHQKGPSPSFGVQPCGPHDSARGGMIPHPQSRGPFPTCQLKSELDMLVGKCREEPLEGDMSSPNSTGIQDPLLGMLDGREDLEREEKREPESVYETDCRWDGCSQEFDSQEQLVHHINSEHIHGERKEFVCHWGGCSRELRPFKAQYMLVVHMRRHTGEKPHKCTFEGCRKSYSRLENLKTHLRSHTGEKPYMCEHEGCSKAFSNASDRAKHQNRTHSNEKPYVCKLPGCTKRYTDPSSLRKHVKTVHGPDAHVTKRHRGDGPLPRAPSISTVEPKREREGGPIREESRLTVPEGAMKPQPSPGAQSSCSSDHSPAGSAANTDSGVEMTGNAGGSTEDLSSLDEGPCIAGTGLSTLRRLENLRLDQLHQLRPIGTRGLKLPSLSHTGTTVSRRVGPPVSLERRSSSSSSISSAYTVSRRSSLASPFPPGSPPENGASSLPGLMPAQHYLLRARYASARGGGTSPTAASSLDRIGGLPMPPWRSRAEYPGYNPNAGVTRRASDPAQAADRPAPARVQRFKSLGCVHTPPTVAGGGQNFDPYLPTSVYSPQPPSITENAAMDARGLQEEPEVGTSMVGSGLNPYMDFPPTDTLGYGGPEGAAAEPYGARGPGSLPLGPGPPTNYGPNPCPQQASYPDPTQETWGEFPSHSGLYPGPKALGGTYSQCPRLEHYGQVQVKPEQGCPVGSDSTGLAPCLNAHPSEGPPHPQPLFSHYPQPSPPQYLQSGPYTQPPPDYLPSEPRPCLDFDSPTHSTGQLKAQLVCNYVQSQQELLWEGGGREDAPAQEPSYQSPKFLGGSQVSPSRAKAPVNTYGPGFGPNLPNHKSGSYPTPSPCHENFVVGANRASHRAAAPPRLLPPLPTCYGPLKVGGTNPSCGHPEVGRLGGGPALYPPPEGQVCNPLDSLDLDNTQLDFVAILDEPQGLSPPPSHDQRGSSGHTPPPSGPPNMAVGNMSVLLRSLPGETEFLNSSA

- Kd [1]: 7 nM
- Kd [2]: 520 nM
- Kd [3]: 300 nM
- Kd [4]: 19 nM
- Kd [5]: 42 ± 8 nM
B1: GST-SUFU (fusion of GST to full-length human SUFU) (natural protein, UniProt Q9UMX1-1 1-484, looked up)
chain: MAELRPSGAPGPTAPPAPGPTAPPAFASLFPPGLHAIYGECRRLYPDQPNPLQVTAIVKYWLGGPDPLDYVSMYRNVGSPSANIPEHWHYISFGLSDLYGDNRVHEFTGTDGPSGFGFELTFRLKRETGESAPPTWPAELMQGLARYVFQSENTFCSGDHVSWHSPLDNSESRIQHMLLTEDPQMQPVQTPFGVVTFLQIVGVCTEELHSAQQWNGQGILELLRTVPIAGGPWLITDMRRGETIFEIDPHLQERVDKGIETDGSNLSGVSAKCAWDDLSRPPEDDEDSRSICIGTQPRRLSGKDTEQIRETLRRGLEINSKPVLPPINPQRQNGLAHDRAPSRKDSLESDSSTAIIPHELIRTRQLESVHLKFNQESGALIPLCLRGRLLHGRHFTYKSITGDMAITFVSTGVEGAFATEEHPYAAHGPWLQILLTEEFVEKMLEDLEDLTSPEEFKLPKEYSWPEKKLKVSILPDVVFDSPLH
notes: human SUFU, full length (residues 1-484), BamHI-SUFU-SalI cassette in pGEX-LB; pGEX-LB carries a Gly-Gly-Gly-Gly-Gly-Ser-Gly stretch between GST and the fused protein; also called full-length GST-SUFU; source: Escherichia coli, purified (glutathione-Sepharose); not shown: GST, N-terminal, kept
